Experimental data published in patent US20050026839A1 (GENERAL HOSPITAL, published 2005).
Square brackets hold non-standard residues; d marks the D form. Ends that are not written are not given here. hArg = N=C(N)NCCCC[C@H](N)C(=O)O; Nle = CCCC[C@H](N)C(=O)O; Aib = CC(C)(N)C(=O)O

How the values were obtained:
[1] = molecular target: T1, truncated human P1R deleted for residues (24-181) (hP1R-delNt) (human, UniProt Q03431 182-593); assay: competition binding, COS-7 cells expressing P1R-delNt
T1 construct: whole, on cells; also called delNT receptor
T1 sequence (looked up): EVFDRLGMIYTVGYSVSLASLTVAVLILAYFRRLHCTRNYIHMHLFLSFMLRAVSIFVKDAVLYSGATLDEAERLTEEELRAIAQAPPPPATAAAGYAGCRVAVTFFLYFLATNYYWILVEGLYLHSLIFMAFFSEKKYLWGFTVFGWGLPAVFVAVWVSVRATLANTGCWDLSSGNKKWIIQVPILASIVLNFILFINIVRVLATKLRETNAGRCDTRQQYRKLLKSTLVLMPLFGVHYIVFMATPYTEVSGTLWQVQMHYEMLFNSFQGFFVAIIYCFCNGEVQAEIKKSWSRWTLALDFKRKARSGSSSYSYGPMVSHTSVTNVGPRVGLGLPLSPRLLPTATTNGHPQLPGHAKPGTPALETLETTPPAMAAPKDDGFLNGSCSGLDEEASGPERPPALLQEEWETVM
Method: These cells, as well as COS-7 cells and SaOS-2-B10 cells, were cultured at […] in T-75 flasks ([…]) in Dulbecco's modified Eagle's medium (DMEM) supplemented with fetal bovine serum (10%), penicillin G (20 units/ml), streptomycin sulfate (20 μg/ml) and amphotericin B (0.05 μg/ml) in a humidified atmosphere containing 5% CO₂. Stock solutions of EGTA/trypsin and antibiotics were from GIBCO; fetal bovine serum was from Hyclone Laboratories (Logan, Utah). […] All cells, in 24-well plates, were treated with fresh media and shifted to 33° C. for 12 to 24 h prior to assay.
Competition Binding. Binding reactions were performed with HKRK-B28 cells or in COS-7 cells in 24-well plates. […] The cells were subsequently lysed with 0.5 mL […] and counted for radioactivity. For each tracer and in each experiment, the non-specific binding was determined as the radioactivity that bound in the presence of the same unlabeled peptide at a concentration of 1 μM, and was ˜1% of total radioactivity added for each tracer. The maximum specific binding (B₀) was the total radioactivity bound in the absence of competing ligand, corrected for nonspecific binding, and for each tracer, ranged from 8% to 20% of the total radioactivity added. […]

[2] = molecular target: T2, wild-type human PTH/PTHrP receptor (hP1R-WT) (human, UniProt Q03431 27-593); assay: competition binding, 125I-[Aib1,3,M]PTH(1-21) tracer, COS-7 cells expressing hP1R-WT
T2 construct: whole, on cells; HKRK-B28 cells express ~280,000 receptors per cell; also called PTH-1 receptor; PTH-1R
T2 sequence (looked up): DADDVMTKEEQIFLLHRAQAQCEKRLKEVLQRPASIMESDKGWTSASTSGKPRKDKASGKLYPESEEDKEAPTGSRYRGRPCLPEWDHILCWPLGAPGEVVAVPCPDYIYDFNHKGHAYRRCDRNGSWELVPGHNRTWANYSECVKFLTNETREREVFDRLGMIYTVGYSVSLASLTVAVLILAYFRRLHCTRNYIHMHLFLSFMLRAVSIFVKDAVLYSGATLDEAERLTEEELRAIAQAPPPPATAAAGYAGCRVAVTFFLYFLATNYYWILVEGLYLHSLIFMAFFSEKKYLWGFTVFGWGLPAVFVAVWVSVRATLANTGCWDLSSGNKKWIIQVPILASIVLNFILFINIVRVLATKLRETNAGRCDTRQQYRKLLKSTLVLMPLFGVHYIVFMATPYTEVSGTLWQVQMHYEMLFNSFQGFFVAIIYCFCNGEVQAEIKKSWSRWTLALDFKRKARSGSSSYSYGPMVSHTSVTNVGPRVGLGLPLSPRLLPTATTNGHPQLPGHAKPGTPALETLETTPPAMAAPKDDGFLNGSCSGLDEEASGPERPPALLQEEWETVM
Method: Competition Binding. Binding reactions were performed with HKRK-B28 cells or in COS-7 cells in 24-well plates. The cells were rinsed with 0.5 mL of binding buffer, and then treated successively with 100 μL binding buffer, 100 μL of binding buffer containing various amounts of unlabeled competitor ligand, and 100 μL of binding buffer containing ca. 100,000 cpm of ¹²⁵I-[M]PTH(1-21) or ¹²⁵I-[Aib^{1,3},M]PTH(1-21)} (ca. 26 fmol; final volume=300 μL). Incubations were 4 to 6 h at 4° C., at which time near equilibrium conditions were attained. Cells were then placed on ice, the binding medium was removed, and the monolayer was rinsed three times with 0.5 mL of cold binding buffer. The cells were subsequently lysed with 0.5 mL […] NaOH and counted for radioactivity. For each tracer and in each experiment, the non-specific binding was determined as the radioactivity that bound in the presence of the same unlabeled peptide at a concentration of 1 μM, and was ˜1% of total radioactivity added for each tracer. The maximum specific binding (B₀) was the total radioactivity bound in the absence of competing ligand, corrected for nonspecific binding, and for each tracer, ranged from 8% to 20% of the total radioactivity added. Nonlinear regression was used to calculate binding IC₅₀ values (see below). Scatchard transformations of homologous competition binding data derived from studies with 26 fmol of ¹²⁵I-[Aib^{1,3},M]PTH(1-21) were employed for estimations of apparent equilibrium dissociation constant (kDapps) and total number of ligand binding sites (Bₘₐₓ), assuming a single class of binding sites and equal affinities of the iodinated and non iodinated ligand.

B1: [Aib^1,3,M]PTH(1-21) (peptide)
peptide: [Aib]V[Aib]EIQL[Nle]HQ[hArg]AKWLASVRRY-NH2
modifications: N-terminus assumed
SMILES: CCCC[C@H](NC(=O)[C@H](CC(C)C)NC(=O)[C@H](CCC(N)=O)NC(=O)[C@@H](NC(=O)[C@H](CCC(=O)O)NC(=O)C(C)(C)NC(=O)[C@@H](NC(=O)C(C)(C)N)C(C)C)[C@@H](C)CC)C(=O)N[C@@H](Cc1c[nH]cn1)C(=O)N[C@@H](CCC(N)=O)C(=O)N[C@@H](CCCCNC(=N)N)C(=O)N[C@@H](C)C(=O)N[C@@H](CCCCN)C(=O)N[C@@H](Cc1c[nH]c2ccccc12)C(=O)N[C@@H](CC(C)C)C(=O)N[C@@H](C)C(=O)N[C@@H](CO)C(=O)N[C@H](C(=O)N[C@@H](CCCNC(=N)N)C(=O)N[C@@H](CCCNC(=N)N)C(=O)N[C@@H](Cc1ccc(O)cc1)C(N)=O)C(C)C
notes: unlabeled peptide; also called 674 [Aib^1,3, M]PTH (1-21); 674 [Aib^1,3M]PTH(1-21)
fold difference in affinity against [Aib^1,3,M]PTH(1-14) [1]: 50 fold
IC50 [2]: 28 nM

B2: [Aib^1,3,M]PTH(1-14) (peptide)
peptide: [Aib]V[Aib]EIQLMHQ[hArg]AKW-NH2
modifications: N-terminus assumed
SMILES: CC[C@H](C)[C@H](NC(=O)[C@H](CCC(=O)O)NC(=O)C(C)(C)NC(=O)[C@@H](NC(=O)C(C)(C)N)C(C)C)C(=O)N[C@@H](CCC(N)=O)C(=O)N[C@@H](CC(C)C)C(=O)N[C@@H](CCSC)C(=O)N[C@@H](Cc1c[nH]cn1)C(=O)N[C@@H](CCC(N)=O)C(=O)N[C@@H](CCCCNC(=N)N)C(=O)N[C@@H](C)C(=O)N[C@@H](CCCCN)C(=O)N[C@@H](Cc1c[nH]c2ccccc12)C(N)=O
notes: also called 671 [Aib^1,3, M]PTH (1-14); 671 [Aib^1,3M]PTH(1-14)
fold stronger binding affinity than [M]PTH(1-14) [1]: ~10 fold
IC50 [2]: 2250 nM
